Test system: MS2 coat protein
Experiment: apparent KD of MS2 coat protein; higher = weaker reporter binding
Conditions: Eterna round: R107
Method in brief: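 Apparent KD per design is the median of normalised cluster binding-curve fits. Designed RNA switches transcribed on-chip from Illumina sequencing clusters were titrated with SNAP-549-labelled MS2 coat protein in twofold steps from 0.7 or 1.5 nM to 3 µM, with 0.8–1.5 h down to 10–20 min per step. Buffer: 100 mM Tris-HCl pH 7.5, 80 mM KCl, 4 mM MgCl2, without or with constant ligand.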

[1] = input ligand: theophylline 20 uM
[2] = input ligand: theophylline 2 mM
[3] = input ligand: tryptophan 2.4 mM

Row | Sequence | apparent KD of MS2 coat protein (input ligand: arginine 13.2 mM) [nM] | apparent KD of MS2 coat protein (input ligand: none) [nM] | apparent KD of MS2 coat protein [1] [nM] | apparent KD of MS2 coat protein [2] [nM] | apparent KD of MS2 coat protein [3] [nM]
1 | UGUACUAUGUGAAGGAGCGAGAAGGAGCGAACAUGAGGAUCACCCAUGUACAGGUAGGUCGCUCAGGUAGGUCGCACAUAGUACU [ArgBS - Double aptamer] | 13.2 | 9.94 | 14.6 | 14.4 | 11.7
2 | UGUAUGGACUGAAGGAGCGGAUGAUAAUCUGAGGAUCACCCAGGUAAUAAGGCGAAAGCCAUCCAGGUAGGUCGCAGUCCAUACU | 40.9 | 82.9 | 96.9 | 111 | 103
3 | UGUAUGGACUGAAGGAGCGGUAGAUAGCUUGAGGAUCACCCAAGUAAUAAGGCGAAAGCCUACCAGGUAGGUCGCAGUCCAUACU | 28 | 25.4 | 30.8 | 26.9 | 27.9
4 | UGUAUGUGAUCUGAUACCAGAGUUGAUAACCUGAGGAUCACCCUGGUAAGGCGAAAGCCACUCCCUUGGCAGCAGAUCGCAUACU | 131 | 86.1 | 67.4 | 18.3 | 101
5 | UGUAUGUGAUCUGAUACCAGUCCAACUGGUAAAGCAUGAGGAUCACCCAUGUAAAAUUGGGACCCUUGGCAGCAGAUCGCAUACU | 146 | 166 | 190 | 316 | 138
6 | UGUCAGCGAAAGUUGACAUGCAGUGCCGGUCGAGGACCGGUACGGCCGCCACUCGAUCUCUCGUACAUGAGGAUCACCCAUGUCG [SS Tryp A #19] | 14.4 | – | 16.6 | 14.9 | –
7 | UGUCAGCGAAAGUUGACAUGUUGAACCGGUCGAGGACCGGUACGGCCGCCACUCGAUCUCUCGUACAUGAGGAUCACCCAUGUCG [SS Tryp A #18] | 11.9 | – | 14 | 11.7 | –
8 | UGUCAUGGAAACAUGACUGGUUCUACCGGUCGAGGACCGGUACGGCCGCCACUCGAUUGGUGGCACAUGAGGAUCACCCAUGUUA [SS Tryp A #14] | 26.2 | – | 51.9 | 33.9 | –
9 | UGUCCUCAUGCGGCCGCCACUGUCGGCCGCCACUAAACAUGAGGAUCACCCAUGUAGGACCGGGACAGGACCGGGCAUGGGUGCU [TryBS - #DoubleAptamer] | 132 | 102 | 232 | 244 | 319
10 | UGUGCAGGAUGCGUAAAGGGUCUUGGGCAUCGAGGACCGGUACGGCCGCCACUCGGCUGUACAUGAGGAUCACCCAUGUCAGGGU [#1 Same State - Tryptophan A Attempt #20 (HarryS)] | 90.8 | 226 | 1060 | 393 | 271
11 | UUAAUCGUGCAUGAUACCAGUAUCCGUAGAUACAUGAGGAUCACCCAUGUCUGGUUGGAAUACCCUUGGCAGCAUGGGUUGAGGA [theeternabot_sameState_MS2_Theo_B_20] | 37.1 | – | 224 | – | 238
12 | UUACACAUCUCGGCCGCCACUGGCUUCAAAAUAAUGUGUACAUGAGGAUCACCCAUGUCCGAGCUCAGGACCGGGAGCAAAGAAG [SS Tryp B #14] | 21.1 | – | 29.2 | 28.4 | –
13 | UUACAUGAGGAUCACCCAUGUCAUACAGAAGGAGCGUCACAUAAGACAGGUAGGUCGCUGUUAUUUCAUACUGUUAUAUCCUCUA [JR_Nu_ExcArginiA_Sub029] | 30.1 | 40.3 | 56.2 | 47.1 | 40
14 | UUAGAUAUGACAGAUACCAGCGUGUUGUAGAACAUGAGGAUCACCCAUGUAGUGAUCGUGCGCCCUUGGCAGCUGGUAUGUUUGG [7.W] | 148 | – | 341 | – | 788
15 | UUAUAUUCUCAAUCGCCAUGUGCUUUAGAUACCAGUCUGAUAAAUGACCCUUGGCAGCUAGAGACAUGAGGAUCACCCAUGUCUU [theeternabot_exclusion_MS2_Theo_A_8] | 11.3 | – | 13.9 | – | 11.2
16 | UUAUGCAGGUCGGCCGCCACUACACACAUGAGGAUCACCCAUGUAGUUACUGGGUGAAGUGGCAGUAGGACCGGGACCUGCAUAC [Brourdmod06] | 55.4 | – | 396 | 877 | –
17 | UUCUACAUGAGGAUCACCCAUGUGGGUGAUACCAGCACUUUUUGGUGCCCUUGGCAGCACAUGAGAAUACCGUACGAUCGGUGAU [Isbiti] | 103 | – | 559 | – | 508
18 | UUGACAUGAGGAUCACCCAUGUCAAAGGCACGAGGACCGGUACGGCCGCCACUCGUGGUCUAUGGCUGGUGGACUCGUGUCUCGG [Soisusdira] | 12.2 | 12 | 16 | 16.8 | 10.8
19 | UUGCUCUCUUCGGCCGCCACUACACGCGAGUUGACGACUGGCGGACAUGAGGAUCACCCAUGUCAUAGGACCGGGAAUCACGCUG [theeternabot_sameState_MS2_Trp_B_11] | 11.5 | – | 15.9 | 15.2 | –

Source: the supplement of paper PMC9170038
